According to patent publication US20230045151A1, “COMPOSITIONS AND METHODS” (MONASH UNIVERSITY, priority 2020, published 2023):

System: CCL20
Test: In vitro stimulation of lung cells enriched for airway epithelial cells, chemokine release
Type: cell-based, mouse
Details: LPS 10 μg/ml, 24 hours; EGF 100 ng/ml, amphiregulin 500 ng/ml or gefitinib 0.16 μM; lower efficacy than PCS
Protocol: Mice were euthanized by CO2 inhalation, instilled with a 1.5 ml dispase II (Sigma-Aldrich) intratracheally, followed by intratracheal injection of 0.5 ml 1% low melting point agarose (Sigma-Aldrich). Lungs were then covered with ice for 3 min, removed and placed in a 15 ml falcon tube with 2 ml of dispase II, and incubated for 45 min with gentle agitation. This was followed by mechanical disruption of the lung lobes using forceps in DMEM supplemented with DNAse I (Sigma-Aldrich, 1U/ml), filtration through 70- and 40-μM cell strainers (Falcon®, Corning) and lysis of erythrocytes using red blood cell lysing buffer (BD Biosciences). Lung cells were plated in a flat-bottom 24-well or 96-well plates (Costar) coated with fibronectin (Sigma-Aldrich, 10 μg/ml) at the density of 1 mln or 0.2 mln cells/well, respectively.
5% CO2, after which the supernatant was collected and stored at −20° C. until further use.

B1: amphiregulin: low affinity EGFR ligand (protein, UniProt P15514 101-187, looked up)
Amphiregulin: SVRVEQVVKPPQNKTESENTSDKPKRKKKGGKNGKNRRNRKKKNPCNAEFQNFCIHGECKYIEHLEAVTCKCQQEYFGERCGEKSMK
modifications: Amphiregulin
- CCL20 production by lung cells stimulated with LPS: selective reduction
